Non-standard residues stand in square brackets, D forms with d. No end group written: not given here.
Molecular target: ERK1 MAP kinase (MAPK3), mouse (mouse, UniProt Q63844)
Test: cell-based or functional assay

## Ac-GRKKRRQRRRPPQGGGGGEPRRTEGVGPGVPGEVEMVKGQPFD[dV] [CPP-RB5]
  EC50 of phospho-ERK positive cells in striatal slices (immunohistochemistry, dose response): 3.4 µM
